Substrate in this series: Acetylcholine
Conditions: pH 8; 27 °C.

What is called Km is the substrate concentration at which the rate is half of its maximum. As usually defined, the kcat is the maximal rate divided by the concentration of active sites. The term kcat/Km denotes the turnover number divided by the Michaelis constant.

B1: unnamed (protein)
chain: MRPPQCLLHTPSLASPLLLLLLWLLGGGVGAEGREDAELLVTVRGGRLRGIRLKTPGGPVSAFLGIPFAEPPMGPRRFLPPEPKQPWSGVVDATTFQSVCYQAVDTLYPGFEGTEMWNPNRELSEDCLYLNVWTPYPRPTSPTPVLVWIYGGGFYSGASSLDVYDGRFLVQAERTVLVSMNYRVGAFGFLALPGSREAPGNVGLLDQRLALQWVQENVAAFGGDPTSVTLFGESAGAASVGMHLLSPPSRGLFHRAVLQSGAPNGPWATVGMGEARRRATQLAHLVGCPPGGTGGNDTELVACLRTRPAQVLVNHEWHVLPQESVFRFSFVPVVDGDFLSDTPEALINAGDFHGLQVLVGVVKDEGSYFLVYGAPGFSKDNESLISRAEFLAGVRVGVPQVSDLAAEAVVLHYTDWLHPEDPARLREALSDVVGDHNVVCPVAQLAGRLAAQGARVYAYVFEHRASTLSWPLWMGVPHGYEIEFIFGIPLDPSRNYTAEEKIFAQRLMRYWANFARTGDPNEPRDPKAPQWPPYTAGAQQYVSLDLRPLEVRRGLRAQACAFWNRFLPKLLSATDTLDEAERQWKAEFHRWSSYMVHWKNQFDHYSKQDRCSDL
Consider B1, for which the Michaelis constant (Km) was 130 µM, the turnover number (kcat) worked out at 6330 s⁻¹ and the kcat/Km is 4.87e+07 M⁻¹ s⁻¹.

B2: unnamed (protein)
chain: MRPPQCLLHTPSLASPLLLLLLWLLGGGVGAEGREDAELLVTVRGGRLRGIRLKTPGGPVSAFLGIPFAEPPMGPRRFLPPEPKQPWSGVVDATTFQSVCYQYVDTLYPGFEGTEMWNPNRELSEDCLYLNVWTPYPRPTSPTPVLVWIYGGGFYSGASSLDVYDGRFLVQAERTVLVSMNYRVGAFGFLALPGSREAPGNVGLLDQRLALQWVQENVAAFGGDPTSVTLFGESAGAASVGMHLLSPPSRGLFHRAVLQSGAPNGPWATVGMGEARRRATQLAHLVGCPPGGTGGNDTELVACLRTRPAQVLVNHEWHVLPQESVFRFSFVPVVDGDFLSDTPEALINAGDFHGLQVLVGVVKDEGSYFLVAGAPGFSKDNESLISRAEFLAGVRVGVPQVSDLAAEAVVLHYTDWLHPEDPARLREALSDVVGDHNVVCPVAQLAGRLAAQGARVYAYVFEHRASTLSWPLWMGVPHGYEIEFIFGIPLDPSRNYTAEEKIFAQRLMRYWANFARTGDPNEPRDPKAPQWPPYTAGAQQYVSLDLRPLEVRRGLRAQACAFWNRFLPKLLSATDTLDEAERQWKAEFHRWSSYMVHWKNQFDHYSKQDRCSDL
Take B2: the Km was found to be 300 µM, the catalytic constant (kcat) is 4170 s⁻¹ and the kcat/Km came out at 1.39e+07 M⁻¹ s⁻¹.

B3: unnamed (protein)
chain: MRPPQCLLHTPSLASPLLLLLLWLLGGGVGAEGREDAELLVTVRGGRLRGIRLKTPGGPVSAFLGIPFAEPPMGPRRFLPPEPKQPWSGVVDATTFQSVCYQYVDTLYPGFEGTEMWNPNRELSEDCLYLNVWTPYPRPTSPTPVLVWIYGGGFYSGASSLDVYDGRFLVQAERTVLVSMNYRVGAFGFLALPGSREAPGNVGLLDQRLALQWVQENVAAFGGDPTSVTLFGESAGAASVGMHLLSPPSRGLFHRAVLQSGAPNGPWATVGMGEARRRATQLAHLVGCPPGGTGGNDTELVACLRTRPAQVLVNHEWHVLPQESVFRASFVPVVDGDFLSDTPEALINAGDFHGLQVLVGVVKDEGSYFLVYGAPGFSKDNESLISRAEFLAGVRVGVPQVSDLAAEAVVLHYTDWLHPEDPARLREALSDVVGDHNVVCPVAQLAGRLAAQGARVYAYVFEHRASTLSWPLWMGVPHGYEIEFIFGIPLDPSRNYTAEEKIFAQRLMRYWANFARTGDPNEPRDPKAPQWPPYTAGAQQYVSLDLRPLEVRRGLRAQACAFWNRFLPKLLSATDTLDEAERQWKAEFHRWSSYMVHWKNQFDHYSKQDRCSDL
Turning to B3, the Km is 310 µM, the turnover number (kcat) was 2000 s⁻¹ and the kcat/Km is 6.45e+06 M⁻¹ s⁻¹.

B4: unnamed (protein)
chain: MRPPQCLLHTPSLASPLLLLLLWLLGGGVGAEGREDAELLVTVRGGRLRGIRLKTPGGPVSAFLGIPFAEPPMGPRRFLPPEPKQPWSGVVDATTFQSVCYQYVNTLYPGFEGTEMWNPNRELSEDCLYLNVWTPYPRPTSPTPVLVWIYGGGFYSGASSLDVYDGRFLVQAERTVLVSMNYRVGAFGFLALPGSREAPGNVGLLDQRLALQWVQENVAAFGGDPTSVTLFGESAGAASVGMHLLSPPSRGLFHRAVLQSGAPNGPWATVGMGEARRRATQLAHLVGCPPGGTGGNDTELVACLRTRPAQVLVNHEWHVLPQESVFRFSFVPVVDGDFLSDTPEALINAGDFHGLQVLVGVVKDEGSYFLVYGAPGFSKDNESLISRAEFLAGVRVGVPQVSDLAAEAVVLHYTDWLHPEDPARLREALSDVVGDHNVVCPVAQLAGRLAAQGARVYAYVFEHRASTLSWPLWMGVPHGYEIEFIFGIPLDPSRNYTAEEKIFAQRLMRYWANFARTGDPNEPRDPKAPQWPPYTAGAQQYVSLDLRPLEVRRGLRAQACAFWNRFLPKLLSATDTLDEAERQWKAEFHRWSSYMVHWKNQFDHYSKQDRCSDL
Take B4: the Michaelis-Menten constant (Km) is 600 µM, the kcat came to 4170 s⁻¹ and the specificity constant (kcat/Km) is 6.94e+06 M⁻¹ s⁻¹.

B5: unnamed (protein)
chain: MRPPQCLLHTPSLASPLLLLLLWLLGGGVGAEGREDAELLVTVRGGRLRGIRLKTPGGPVSAFLGIPFAEPPMGPRRFLPPEPKQPWSGVVDATTFQSVCYQAVDTLYPGFEGTEMWNPNRELSEDCLYLNVWTPYPRPTSPTPVLVWIYGGGFYSGASSLDVYDGRFLVQAERTVLVSMNYRVGAFGFLALPGSREAPGNVGLLDQRLALQWVQENVAAFGGDPTSVTLFGESAGAASVGMHLLSPPSRGLFHRAVLQSGAPNGPWATVGMGEARRRATQLAHLVGCPPGGTGGNDTELVACLRTRPAQVLVNHEAHVLPQESVFRFSFVPVVDGDFLSDTPEALINAGDFHGLQVLVGVVKDEGSYFLVYGAPGFSKDNESLISRAEFLAGVRVGVPQVSDLAAEAVVLHYTDWLHPEDPARLREALSDVVGDHNVVCPVAQLAGRLAAQGARVYAYVFEHRASTLSWPLWMGVPHGYEIEFIFGIPLDPSRNYTAEEKIFAQRLMRYWANFARTGDPNEPRDPKAPQWPPYTAGAQQYVSLDLRPLEVRRGLRAQACAFWNRFLPKLLSATDTLDEAERQWKAEFHRWSSYMVHWKNQFDHYSKQDRCSDL
As for B5, the Km turned out to be 300 µM, the kcat amounted to 7000 s⁻¹ and the kcat/Km turned out to be 2.33e+07 M⁻¹ s⁻¹.
